Results on two molecules are retold here after patent publication US20260152553A1 (LYELL IMMUNOPHARMA, published 2026).

Sequences and labels used below:
B2: CD19/CD20 bispecific CAR (Leu16 scFv-(G4S)4-FMC63 scFv-IgG4 hinge-CD28 TM-4-1BB-CD3 zeta) (other)
chain: DIVLTQSPAILSASPGEKVTMTCRASSSVNYMDWYQKKPGSSPKPWIYATSNLASGVPARFSGSGSGTSYSLTISRVEAEDAATYYCQQWSFNPPTFGGGTKLEIKGSTSGGGSGGGSGGGGSSEVQLQQSGAELVKPGASVKMSCKASGYTFTSYNMHWVKQTPGQGLEWIGAIYPGNGDTSYNQKFKGKATLTADKSSSTAYMQLSSLTSEDSADYYCARSNYYGSSYWFFDVWGAGTTVTVSSGGGGSGGGGSGGGGSGGGGSEVKLQESGPGLVAPSQSLSVTCTVSGVSLPDYGVSWIRQPPRKGLEWLGVIWGSETTYYNSALKSRLTIIKDNSKSQVFLKMNSLQTDDTAIYYCAKHYYYGGSYAMDYWGQGTSVTVSSGSTSGSGKPGSGEGSTKGDIQMTQTTSSLSASLGDRVTISCRASQDISKYLNWYQQKPDGTVKLLIYHTSRLHSGVPSRFSGSGSGTDYSLTISNLEQEDIATYFCQQGNTLPYTFGGGTKLEITESKYGPPCPPCPMFWVLVVVGGVLACYSLLVTVAFIIFWVKRGRKKLLYIFKQPFMRPVQTTQEEDGCSCRFPEEEEGGCELRVKFSRSADAPAYQQGQNQLYNELNLGRREEYDVLDKRRGRDPEMGGKPRRKNPQEGLYNELQKDKMAEAYSEIGMKGERRRGKGHDGLYQGLSTATKDTYDALHMQALPPR

Some results are limits rather than exact numbers.

Test [1] concerns the target B2. The test can be described thus: flow cytometry, staining of T cells (donor 1917) transduced with CD19/20 CAR lentiviral vector. The text has this:
Direct Detection of CAR+ cells by Flow Cytometry. Direct measurement was used to detect expression of CD 19/20 CAR. Because quantification of a tEGFR protein may not provide an accurate measurement of surface CAR expression, tEGFR was removed from the Lentiviral vector as described herein, and instead utilized antibodies which bound to the scFv domains of the CD19/20 CAR protein to report surface CAR expression.
A general note: A flow cytometer gives signals particle by particle.

In test [2] the target is T1, CD19 (human, UniProt P15391 20-556).
T1 sequence (looked up): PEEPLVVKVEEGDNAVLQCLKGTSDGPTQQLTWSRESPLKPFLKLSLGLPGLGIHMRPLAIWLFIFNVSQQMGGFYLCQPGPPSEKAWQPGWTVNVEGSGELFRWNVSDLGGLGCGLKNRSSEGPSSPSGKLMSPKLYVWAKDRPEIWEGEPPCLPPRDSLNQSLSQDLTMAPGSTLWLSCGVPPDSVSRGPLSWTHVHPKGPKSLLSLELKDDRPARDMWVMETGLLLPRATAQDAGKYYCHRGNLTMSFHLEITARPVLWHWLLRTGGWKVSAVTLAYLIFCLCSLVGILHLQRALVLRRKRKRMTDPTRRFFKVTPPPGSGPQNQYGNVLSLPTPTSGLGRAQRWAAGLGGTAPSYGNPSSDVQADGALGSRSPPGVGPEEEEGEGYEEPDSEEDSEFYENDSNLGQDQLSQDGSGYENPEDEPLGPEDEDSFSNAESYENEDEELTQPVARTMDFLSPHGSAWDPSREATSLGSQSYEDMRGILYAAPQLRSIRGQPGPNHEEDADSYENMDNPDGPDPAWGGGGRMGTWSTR
The test can be described thus: cell-based or functional assay.

B1: CD20 Protein-Biotin (Acros) (other, UniProt P11836 1-297, looked up)
chain: MTTPRNSVNGTFPAEPMKGPIAMQSGPKPLFRRMSSLVGPTQSFFMRESKTLGAVQIMNGLFHIALGGLLMIPAGIYAPICVTVWYPLWGGIMYIISGSLLAATEKNSRKCLVKGKMIMNSLSLFAAISGMILSIMDILNIKISHFLKMESLNFIRAHTPYINIYNCEPANPSEKNSPSTQYCYSIQSLFLGILSVMLIFAFFQELVIAGIVENEWKRTCSRPKSNIVLLSAEEKKEQTIEIKEEVVGLTETSSQPKNEEDIEIIPIQEEEEEETETNFPEPPQDQESSPIENDSSP
modifications: biotin (site not stated)
notes: Bought detection reagent; construct not described
For B1, the “% Positive Cells” value in test [1] is 68.1%.

Take B2: in test [2], the “IFN-γ and IL-2 production, 1:1 effector:target cell ratio or greater, 24 hours, target cells lacking CD20” value was above 1000.
